From the supplement of paper PMC10598134 come the findings set out here.

The nature of this data set: collision cross section of unmodified peptide (TIMS, N2, iRT-aligned); higher = larger / more extended gas-phase ion. In outline: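 Collision cross section values rest on the Mason-Schamp equation applied to calibrated, run-aligned mobility data from synthetic peptides. Mobility (1/K0) was calibrated with three reference ions and aligned per run to the median iRT peptide deviation, and 1–3 technical replicates of the most abundant feature per charge state were averaged. Data came from a timsTOF Pro/HT in dda-PASEF mode (nitrogen, ~2.4 mbar) after a 120-min nanoflow C18 gradient at 60 °C.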

± gives the standard deviation.

Regarding LEKTIDDLEEK, the collision cross section (charge state: 2) is recorded as 403.94 ± 1.9 Å² and the collision cross section (charge state: 3) is given as 470.73 ± 4.5 Å².

Regarding VFLDCCNYITELR, for the setting “charge state: 2”, the collision cross section is 421.63 ± 0.67 Å². In turn, LGSASSSHGSIQESHK gave a collision cross section (charge state: 3) of 509.47 ± 1.3 Å². For the substance DDSNLYINVK, under “charge state: 2”, the collision cross section is reported as 367.7 ± 0.74 Å². Turning to TLQKQSVVYGGK, the collision cross section stood at 390.15 ± 1.7 Å² (charge state: 2) and 444.64 ± 5 Å² (charge state: 3). GTPGKPGPR showed a collision cross section (charge state: 2) of 311.01 ± 0.77 Å². Under “charge state: 2”, LQNSYQPTNK came in with a collision cross section of 358.91 ± 0.48 Å². As for DLSTVEALQNLKNLK, the collision cross section worked out at 472.99 ± 2.9 Å² (charge state: 2) and 543.69 ± 1.2 Å² (charge state: 3). With GSLGAQKLANTCFNEIEK, the collision cross section is, setting by setting: (charge state: 2) 483.18 ± 2.7 Å²; (charge state: 3) 511.29 ± 4.4 Å².

In turn, IVNVSLADLR gave a collision cross section (charge state: 2) of 359.17 ± 0.57 Å². For the substance YIDNQVVSTKGER, the collision cross section runs as follows: (charge state: 2) 414.64 ± 0.66 Å²; (charge state: 3) 500.48 ± 1 Å². GERGPPGPPGK: the collision cross section is 325.96 ± 0.79 Å² (charge state: 2) and 437.43 ± 1.2 Å² (charge state: 3). In the case of YIEIYVQKVNPSR, the collision cross section turned out to be 435.38 ± 2.7 Å² (charge state: 2) and 505.68 ± 2.1 Å² (charge state: 3).

With VILENIASHEPR, the collision cross section turned out to be 417.03 ± 1.4 Å² (charge state: 2) and 473.55 ± 0.22 Å² (charge state: 3). With STCTYVGAAK, under “charge state: 2”, the collision cross section is recorded as 334.15 ± 0.48 Å². PATSYVR had a collision cross section (charge state: 2) of 307.47 ± 0.15 Å². In the case of GEVQVSDKER, the collision cross section reads like this: (charge state: 2) 363.87 ± 0.37 Å²; (charge state: 3) 439.27 ± 4.5 Å².

In the case of GQDSTIAASEQQVAAR, the collision cross section reads like this: (charge state: 2) 416.79 ± 0.66 Å²; (charge state: 3) 495.1 ± 0.23 Å². Taken in the same sequence, the figures for LEQVEKELLR were 383.51 ± 1.5 Å² and 455.22 ± 4.1 Å². GPPGAKGNK: the collision cross section (charge state: 2) was determined as 312.31 ± 1.7 Å². For LDEKENLSAK, the collision cross section is, setting by setting: (charge state: 2) 363.87 ± 1.4 Å²; (charge state: 3) 445.27 ± 6.6 Å². For the substance KDYQPGITFIVVQK, the collision cross section (charge state: 3) is 508.05 ± 1.2 Å². Substance LGTTPSVYGGAGGRGIR displayed a collision cross section (charge state: 2) of 444.42 ± 1.7 Å² and a collision cross section (charge state: 3) of 523.45 ± 1.1 Å².

Take DVNAAIAAIKTK: the collision cross section is 391.89 ± 2.3 Å² (charge state: 2) and 461.97 ± 1.6 Å² (charge state: 3). Regarding LQEKVESAQSEQK, the collision cross section was 416.22 ± 2.1 Å² (charge state: 2) and 487.5 ± 6.9 Å² (charge state: 3).

For SPSDSGYSYETIGKTTK, the collision cross section runs as follows: (charge state: 2) 441.25 ± 2.3 Å²; (charge state: 3) 517.54 ± 3.3 Å². As to YTTNNSSEQR, the collision cross section (charge state: 2) turned out to be 353.04 ± 0.15 Å².

GEQGEPGAPGIR: the collision cross section (charge state: 2) is reported as 347.53 ± 0.79 Å². HTLLRAPAPELLPANVAGR displayed a collision cross section (charge state: 3) of 530.02 ± 1.9 Å².

AAINQKLIETGER came in with a collision cross section (charge state: 2) of 409.65 ± 1.4 Å² and a collision cross section (charge state: 3) of 476.29 ± 7.6 Å². Take GSIGFPGFPGANGEKGGR: where the note is “charge state: 3”, the collision cross section is on record as 519.37 ± 1.2 Å².

As for ETTPSSLAVTQTMATK, the collision cross section (charge state: 2) is listed as 434.06 ± 0.13 Å². For TYVQDILR, the collision cross section (charge state: 2) turned out to be 349.04 ± 0.59 Å². As to FSHSVQNSERGK, the collision cross section was determined as 402.29 ± 0.72 Å² (charge state: 2) and 464.33 ± 2.2 Å² (charge state: 3). In turn, VGYPGPSGPLGARGIPGIK yielded a collision cross section (charge state: 2) of 447.51 ± 0.68 Å² and a collision cross section (charge state: 3) of 562.22 ± 0.35 Å². TQSFSLQER came in with a collision cross section (charge state: 2) of 347.63 ± 0.14 Å². Substance DDSFLGKLGGTLAR gave a collision cross section (charge state: 2) of 410.69 ± 1.4 Å² and a collision cross section (charge state: 3) of 475.25 ± 2.7 Å². On the same counts, the results for GRGGPGPAQR are 323.16 ± 0.71 Å² and 428.92 ± 5.9 Å². As for DAIHFYNKSLAEHR, the collision cross section runs as follows: (charge state: 2) 440.43 ± 2.3 Å²; (charge state: 3) 501.63 ± 3.9 Å².

As to FDDTNPEKEEAK, the collision cross section stood at 396.22 ± 1.8 Å² (charge state: 2) and 501.37 ± 2.2 Å² (charge state: 3).

As to LSFGLEDEPLETATK, the collision cross section reads like this: (charge state: 2) 426.44 ± 0.65 Å²; (charge state: 3) 496.99 ± 0.21 Å².

Substance DYNVTANSK had a collision cross section (charge state: 2) of 328.46 ± 2 Å².

GRGTGEAEEEYVGPR: the collision cross section turned out to be 410.08 ± 0.96 Å² (charge state: 2) and 491.56 ± 0.9 Å² (charge state: 3). Regarding VEPGSLESSPGLGRGR, the collision cross section worked out at 425.39 ± 1.8 Å² (charge state: 2) and 497.45 ± 0.11 Å² (charge state: 3). The substance FPGVGVLPGVPTGAGVK displayed a collision cross section (charge state: 2) of 421.12 ± 0.5 Å² and a collision cross section (charge state: 3) of 509.46 ± 1.2 Å².

As to GAEKTEVAEPR, the collision cross section runs as follows: (charge state: 2) 369.12 ± 1.5 Å²; (charge state: 3) 445.67 ± 5 Å². Where the note is “charge state: 2”, CYYGSDTAGR registered a collision cross section of 353.22 ± 1.1 Å². VEELEGEITTLNHK: the collision cross section (charge state: 2) was found to be 424.1 ± 0.66 Å² and the collision cross section (charge state: 3) is 513.8 ± 3.5 Å². Under “charge state: 2”, LSSETYSQAK returned a collision cross section of 348.96 ± 1.1 Å². Take VPGVGLPGVYPGGVLPGAR: the collision cross section is reported as 445.04 ± 0.9 Å² (charge state: 2) and 532.89 ± 0.34 Å² (charge state: 3). With LGVPGLPGYPGR, where the note is “charge state: 2”, the collision cross section is listed as 354.06 ± 0.41 Å². Consider SYVDTGGVSR, for which, for the setting “charge state: 2”, the collision cross section was found to be 337.16 ± 0.15 Å². Substance GGNFGGRGGYGGGGGGSR had a collision cross section (charge state: 2) of 404.35 ± 1.4 Å² and a collision cross section (charge state: 3) of 464.41 ± 2.6 Å². In turn, RLDINTNTYTSQDLK showed a collision cross section (charge state: 3) of 533.11 ± 1 Å². In the case of SGGGYGGDRSSGGGYSGDR, the collision cross section (charge state: 3) came out at 476.79 ± 0.56 Å². As for IPAASAAAMNLASAR, the collision cross section was 397.84 ± 0.66 Å² (charge state: 2) and 496.43 ± 0.86 Å² (charge state: 3). The substance PGLQGPR came in with a collision cross section (charge state: 2) of 285.1 ± 4.4 Å².

AGRGFSLEELR: the collision cross section is, setting by setting: (charge state: 2) 376.05 ± 0.67 Å²; (charge state: 3) 459.45 ± 3.3 Å². In the case of IVEKYGYTHLSAGELLR, the collision cross section is, setting by setting: (charge state: 2) 489.48 ± 3 Å²; (charge state: 3) 538.24 ± 2.8 Å². HHAAYVNNLNVTEEK: the collision cross section by setting is: (charge state: 2) 444.13 ± 2.1 Å²; (charge state: 3) 494.31 ± 0.87 Å². As to GEPGIPAIPGIRGPK, the collision cross section (charge state: 2) stood at 382.37 ± 0.58 Å² and the collision cross section (charge state: 3) is reported as 515.69 ± 0.34 Å². In turn, HVSPVTPPR had a collision cross section (charge state: 2) of 327.76 ± 0.64 Å². Take SLGEPAAGEGSAKR: the collision cross section is 397.19 ± 1.1 Å² (charge state: 2) and 478.87 ± 5.9 Å² (charge state: 3).

AVAITQSPSSVR showed a collision cross section (charge state: 2) of 368.2 ± 0.14 Å². The same measure, in the same setting: in the case of CQGGQETQEYR it was 370.06 ± 0.16 Å². For GGGGGRGGLHDFR, the collision cross section (charge state: 2) is given as 368.29 ± 0.36 Å² and the collision cross section (charge state: 3) turned out to be 457.27 ± 2.8 Å². With DYQPGITFIVVQK, the collision cross section is reported as 401.42 ± 0.24 Å² (charge state: 2) and 485.74 Å² (charge state: 3).

Consider GPPPSYGGSSR, for which the collision cross section (charge state: 2) amounted to 337.81 ± 0.59 Å². In the case of DYVSQFEGSALGK, the collision cross section (charge state: 2) is on record as 385.54 ± 0.47 Å². As to INNFSADIKDSK, the collision cross section stood at 403.18 ± 2.5 Å² (charge state: 2) and 450.51 ± 4 Å² (charge state: 3). As for LDHLAEKFR, the collision cross section (charge state: 2) turned out to be 365.36 ± 1.5 Å² and the collision cross section (charge state: 3) is given as 453.05 ± 4 Å². In the case of FLQEFYQDDELGK, the collision cross section (charge state: 2) came to 424.29 ± 0.5 Å². Consider VQFAPEKPGPQPSAETTR, for which the collision cross section (charge state: 3) came to 507.38 ± 9.7 Å².

Regarding GPKGQQGEPGPK, the collision cross section reads like this: (charge state: 2) 356.26 ± 0.79 Å²; (charge state: 3) 451.77 ± 0.63 Å². As to VGTASVLQPVKK, the collision cross section was determined as 400.02 ± 0.9 Å² (charge state: 2) and 461.91 ± 3 Å² (charge state: 3).

Take GLPGLAGDHGEFGEK: the collision cross section reads like this: (charge state: 2) 432.07 ± 1 Å²; (charge state: 3) 504.1 ± 0.34 Å². Turning to GTGRGGGGGGGGGAPR, the collision cross section is, setting by setting: (charge state: 2) 356.62 Å²; (charge state: 3) 435.15 ± 5.4 Å². Where the note is “charge state: 3”, GNDISSGTVLSDYVGSGPPKK came in with a collision cross section of 543.89 ± 0.71 Å².

Substance HHTLRQAPQPQSSLQR yielded a collision cross section (charge state: 3) of 502.65 ± 0.69 Å². Substance AYGELPEHAK had a collision cross section (charge state: 2) of 366.13 ± 0.54 Å² and a collision cross section (charge state: 3) of 441.2 ± 1.1 Å². Taken in the same sequence, the figures for LVLPSQAQARLPSGEVVK were 482.13 ± 2.1 Å² and 526.02 ± 0.85 Å². On to YVGESEANIR, for which the collision cross section (charge state: 2) is listed as 358.37 ± 0.55 Å².

Regarding GGSAGGRGFFR, the collision cross section is listed as 360.79 ± 0.54 Å² (charge state: 2) and 432.59 ± 6.7 Å² (charge state: 3). In the case of GEKGDPGLIGPK, the collision cross section (charge state: 2) is listed as 373.44 ± 1.5 Å² and the collision cross section (charge state: 3) was 449.05 ± 1.4 Å². As for VLTANSNPSSPSAAKR, the collision cross section (charge state: 2) is 431.51 ± 2 Å² and the collision cross section (charge state: 3) was determined as 517.98 ± 8.8 Å².

Turning to AQLSQYFDAVK, the collision cross section (charge state: 2) stood at 384.48 ± 1.1 Å². For the substance VPQAQPTKPALK, the collision cross section reads like this: (charge state: 2) 384.79 ± 0.67 Å²; (charge state: 3) 486.38 ± 2.7 Å².
